In publication PMC10233817:
Where two headings read alike, the source gives them in different places.

Tests used:
[1] = target: T1, EWS RRM-RG2-ZnF (UniProt Q01844 361-549); experiment: EMSA
[2] = target: T2, EWS RRM-RG2 (UniProt Q01844 361-517); experiment: EMSA
T2 sequence: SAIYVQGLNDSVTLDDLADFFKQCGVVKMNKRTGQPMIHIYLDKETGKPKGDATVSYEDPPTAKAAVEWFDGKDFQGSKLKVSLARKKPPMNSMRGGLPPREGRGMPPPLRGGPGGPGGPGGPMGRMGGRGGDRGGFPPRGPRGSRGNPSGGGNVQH

[3] = target: T2, EWS RRM-RG2; experiment: ITC
[4] = target: T3, EWS RRM (UniProt Q01844 361-447); experiment: ITC
T3 sequence: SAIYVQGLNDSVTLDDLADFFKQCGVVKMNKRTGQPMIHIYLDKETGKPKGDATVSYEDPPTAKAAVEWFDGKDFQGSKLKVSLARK

[5] = target: T1, EWS RRM-RG2-ZnF; experiment: ITC
Target sequence in this assay (Q01844 361-549): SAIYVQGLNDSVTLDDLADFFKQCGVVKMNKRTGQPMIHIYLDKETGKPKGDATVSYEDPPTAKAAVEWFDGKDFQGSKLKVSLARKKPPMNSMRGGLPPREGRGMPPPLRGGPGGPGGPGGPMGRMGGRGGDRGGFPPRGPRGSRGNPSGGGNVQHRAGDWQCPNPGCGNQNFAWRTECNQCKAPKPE

[6] = target: T1, EWS RRM-RG2-ZnF; experiment: EMSA; remark: listed apart in the source
[7] = target: T2, EWS RRM-RG2; experiment: EMSA; remark: listed apart in the source

B1: RNA:DNA hybrid (DNA:RNA)
RNA: GCAGCUGGCACGACAGGUAUGAAUC
DNA: GATTCATACCTGTCGTGCCAGCTGC
[1]
  binding result: binds
[2]
  binding result: binds

## TAAGGGAGGGCGGGAGGGAA (structured_DNA) [pu20m2 DNA G4]
[3]
  Kd: 3.28 ± 0.5 µM
[4]
  Kd: 22.3 ± 6.8 µM
[5]
  Kd: 3.96 ± 0.7 µM

## GGAUCUUUAACUACUCAAGAUACUGAACAUGACAUGGUA (structured_RNA) [SON-GGU]
[6]
  binding result: binds
[7]
  binding result: binds
